Measured values taken from the supplement of paper PMC12042874.
± gives the uncertainty stated by the source.

assay: amyloid nucleation score (Sup35N fusion, yeast selection) (log enrichment); library NNK2; higher = more nucleation; inactive = no reads after selection
Procedure, shortened: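 Yeast lacking psi expressed peptides of 20 random codons fused to Sup35N, received 100 μM copper sulfate for 24 hours, and were then grown for 7 days at 30°C on medium lacking adenine and uracil. Illumina sequencing of input and output plasmid inserts provided the reads. Nucleation scores are DiMSum log enrichments of output over input, centred on the mode of non-aggregating sequences. Any sequence with under 100 input reads was excluded.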

Substance | amyloid nucleation score
PSLVRRNTSLCL | 0.325 ± 0.41
VFVFFGDKW | inactive
DALQSSFTTLLLYNAIEDVY | -0.317 ± 0.35
RLILFAMTVLLASRGYNVRS | 0.402 ± 0.21
TNCINM | 5.49 ± 0.055
FYVNSWPSPLGTYWRGYNGR | 0.106 ± 1
ERYLCVVDMEIKGRALRKRW | -0.144 ± 0.44
YVSLNQRVNFA | -1.47 ± 0.76
WVMAVVDHVLSWFYWRLCLF | 3.26 ± 0.058
HLMLFDMTASLLHSHNVSRP | 5.63 ± 0.058
PWYLRVSEHHKPWEPENWG | 0.552 ± 0.32
ESGCQGNSLKCVLSRCNGWR | 3.45 ± 0.1
FDHMWLSGQVQWFLNYTTSL | inactive
EASKGHISTVLWLGGVIS | -0.352 ± 0.65
KLPMRNFRDVCEADLHPVK | 1.11 ± 0.61
VLFKIIRLRLENIPSSWWVI | 0.152 ± 0.32
ITWGFNVFMFVVPSWS | 8.67 ± 0.035
LFMLGMSAQLVFAFSLLGGI | 2.62 ± 0.078
KLYVAIMNSWILGKVGSYNG | 6.214 ± 0.034
HFMRLYSKVLILLAEKRTAP | 0.083 ± 0.76
RFAFVRNKTWEQLPMI | inactive
FYWNEICFNSSKE | inactive
NDFTFLMFDM | 1.25 ± 0.44
VSACQSESVSNVFDR | -0.152 ± 0.56
FGMSCWFLFFASQFSVTNNC | -1.51 ± 0.76

Substance | amyloid nucleation score
TDLIPRQKKITLWFIS | 0.159 ± 0.53
RLLLEDASIVGLIITYYLMF | 0.085 ± 0.8
HFIIYYDSYNTMVIGEFAVQ | inactive
CIYKS | -1.36 ± 0.75
PILGGEFDAGWRNFLFWKGW | 0.448 ± 0.66
CVFAHFCCLFASMMPCKFSW | -0.127 ± 1
KFKVHQMQDVLSWVGYHDGS | 4.13 ± 0.044
RVMSHT | 0.658 ± 0.51
AISHQPLWLLCHVVHLFRNS | 0.279 ± 0.32
RLLDFCQFPVTS | 3.7 ± 0.063
SSGLTRFKYRRLRSIVFELG | inactive
ALFYLSCQPSTGALESRYLG | 1.73 ± 0.29
REVQYWARYLSVMQLCFVSS | 2.19 ± 0.13
SCHVFFVTIEGNASSANGHR | 8.14 ± 0.07
MDLRVTVILFSDYEAYFDVT | 1.33 ± 0.18
YLHLSQTQWLGLIFNRRSFD | 3.62 ± 0.068
LSAVVTSFKVTN | 0.523 ± 0.64
DSYGSFVKLMTVSVYMKGVF | inactive
GYNQLLTQGKPGYCFRISRV | -1.29 ± 0.78
VKFVLQVYYGVPST | 0.307 ± 0.27
YNKGPLTGMFYMEGASVNIC | inactive
FRSNSDLISFERASFR | -1.62 ± 0.55
RVLVVYRSLKVAESLSLTSV | 0.093 ± 0.33
SRGLSGNSSASLEKLNRL | 0.072 ± 0.63
QLRVYEKFKWCQREWRMDRF | 4.623 ± 0.034

Substance | amyloid nucleation score
MTKRG | 0.187 ± 0.41
LFSHFYSYDY | -0.317 ± 1.1
LVAVVQGFRCVCLDSKLTGV | inactive
YSSFFHFRVCNLCRWGSVSN | 0.121 ± 0.18
YSGFI | inactive
MKSNSLSGRCSQFHLES | -0.184 ± 1.1
HNNFYPA | -0.552 ± 0.35
HSSSDVCT | 5.295 ± 0.049
RNSAHNLEMFYRGMWDGMCW | -0.429 ± 0.55
KHSWSIALV | 0.239 ± 0.65
NYYCFQIRMLENNEEVFGIG | inactive
EARVSDSVFGLVVVKTMCYV | 5.535 ± 0.043
KYFRICRVYLNTLLPLVTLV | inactive
FFDIVIAERLTVLHVSVVSK | 4.59 ± 0.074
KGFDEVGMMAIGFDSWVGTR | 0.242 ± 0.26
IRCCAWFDLVSESRSRGTWT | 5.43 ± 0.072
LQCAFFDSSNMWI | -0.604 ± 0.76
PKGNSRYMRLIFDAQLSYTG | 1.25 ± 0.13
RIIGTDLSRLWWIKFKVKRG | -0.091 ± 0.65
NAFLPG | 4.52 ± 0.12
PHVRTFRRFRWMY | -0.251 ± 0.39
RMHWTKTH | -0.311 ± 1.1
CMFEFHGVAVGLMRVFHRLW | 5.23 ± 0.062
LGRCY | 2.72 ± 0.062
FCLNATKAWFVLGVMYLDHW | -0.805 ± 0.35

Substance | amyloid nucleation score
ASSTNVYLIIIGLWSAAM | 2.46 ± 0.18
YVHVNIRYFYSLGDAVDKMP | 4.86 ± 0.11
GGSVMQILGWFLQAV | 0.683 ± 0.42
QVMMIWCIWDY | 6.949 ± 0.042
MPPRGKSWSVRTSLWKQIFM | 3.24 ± 0.11
PNSSNPNPMRLVFRSMSFRL | 0.269 ± 0.64
TVNCLGIFSRFLCLNWASWL | 3.53 ± 0.15
NISFGSYILLRFLMRVE | 0.58 ± 0.6
VKHTFLRKFWMHRSIESYGH | -0.111 ± 0.38
GHMVYRTNVGRSV | 0.187 ± 0.74
FDPIRWLLNYIFMASTLYVE | -0.804 ± 0.44
KKLKRRRVFVCEFTKEGIRG | -0.067 ± 1.1
NFMCVSYQAAANSILRVPQS | 1.28 ± 0.11
ILVSTIEGCLDYNLCFLAGL | 1.67 ± 0.12
TLVVRGHC | 2.14 ± 0.11
CCCGRMTSVHVDKPDLYLPL | -0.047 ± 1.1
VPGLESMR | 0.57 ± 0.81
SRSSG | 5.17 ± 0.058
LINWVVVLYG | 1.9 ± 0.14
SSFLDRAIGGEAGRCSVWMK | 0.856 ± 0.24
VVGSWYKSGRKRLQRDDALS | -1.03 ± 0.55
GNFVHTYNIK | 0.526 ± 0.66
LADQSYKPAWLFPGSTSVLV | 0.078 ± 0.74
HNFVFLGKFAYTWKWMKMLS | inactive
LLAFHCGHQMCFGVINMSTG | 3.83 ± 0.065

Substance | amyloid nucleation score
VWLRYYMCFNFVWSIVGVRI | 3.81 ± 0.052
GLRRVKFYIKVIFAKSSLVI | -1.84 ± 0.49
VYQIRKV | -0.523 ± 0.33
GSGFLFFSVF | 0.353 ± 0.25
VKRVFGYCFIEGLSKDVFHG | 6.351 ± 0.043
AFRMLITGPGNS | -1.07 ± 0.49
FVCLVLRLCTMGSRASGLKK | 0.255 ± 1.1
PCVLKLRSSSKSISCSWGVS | 3.85 ± 0.074
WSWSLGNYYAHNVDCYSVGC | -0.266 ± 0.41
SQSKDMMCLSGSYSYYTACA | -1.21 ± 0.78
NSTKTRLSSDTTLDFLEATR | -0.299 ± 0.27
SGEARQH | -0.691 ± 0.49
CTFKFMAVQFCG | 5.46 ± 0.073
RRYHRR | 1.42 ± 0.38
LSMSWC | 1.1 ± 0.44
SRLMCNNVTSLLVFVFIGHK | -0.337 ± 0.74
LKKFVPPELRSADVDRKCSK | inactive
CIKVCALGCVDGVLVWERRW | 0.538 ± 0.27
SILTVKQRTYVNGGRLYSRY | 0.005 ± 0.49
KTRHKVLRKDL | -1.64 ± 0.54
NNELDRISRTVCLWWVG | -0.239 ± 0.65
RKVCFLAVKCGGFVCFIVRA | inactive
TFAVENHFFMEVLRRKVLIG | inactive
DFYGYRKDFFLEQCPACSLY | -1.38 ± 0.78
SYCTR | -0.645 ± 0.56

Substance | amyloid nucleation score
KFNPRPCSFKYLRV | inactive
VFYELGLFLLNFVVLHASED | 1.68 ± 0.18
HISVISTNEFTRIRASAAHA | 1.38 ± 0.67
KYSAQIL | 0.172 ± 0.33
CGKCSVCG | 0.502 ± 0.27
YRQMIRDYWIEKQSLHIRAD | 0.27 ± 0.56
IQYPLFSCTYEGFFGDRYMA | -0.495 ± 0.55
YGALYTVRMEN | -0.482 ± 0.49
SRHWLNDVIFLSHSTSGQHW | 1.49 ± 0.18
LFMNRHVYVLQVVEMYKRQT | -1.07 ± 1.1
CIGIWDAIEVVENREL | -0.545 ± 0.64
WLRNWGYAFGPRQNYNCCRV | -0.569 ± 0.49
FRYLDRSNYRKSCGYIITLT | -0.74 ± 1.1
GCNRQMSARK | 4.29 ± 0.044
MSIWCNSIDRTFIDNLRPVF | -1.43 ± 0.62
YVCGWINVLG | -0.661 ± 0.63
GCVNYNGRCEVDGRAD | -0.227 ± 0.23
MTMMVGRIISTNRVYS | 1.29 ± 0.53
CVFRHTVIYGLGAGW | 2.65 ± 0.14
TLHCRSILGELLYVDMVKDD | -0.297 ± 0.46
SVKRHPFRTVKLGVSVLLWV | 1 ± 0.18
TYEMSVVGVEWWVTGQLTIC | 1.68 ± 0.38
RWKTVFRVYVEQKALPDLIC | 5.85 ± 0.087
LTTPLSRQVCMRFRAFNPEA | -0.655 ± 0.41
PSVKIRFQVAYWLYRSLMMS | 0.877 ± 0.55

Substance | amyloid nucleation score
CTLVFKGLGCKSVELGGTFC | -0.564 ± 0.61
RRGGDKVIISEHV | -0.757 ± 0.45
LFFALSMCSIF | 6.348 ± 0.032
WSVGVESSKDQSLDQFGSD | -0.184 ± 1.1
YTEQVYVYLGFLSHGASRYL | -0.716 ± 1.1
SPGIITCGYKLLDG | 1.69 ± 0.27
SSWVFITFSYVMRSQVYHLK | -1.12 ± 0.49
DRQTATSEMVSNRLISFRLV | 0.145 ± 0.19
VVERKLVMHYGMEMYTVHDG | 0.971 ± 0.51
RSDMH | 0.673 ± 0.44
GIGFKWGTILLKSLGNIYSQ | -0.263 ± 0.76
YHVRIGSGRAVSLHV | 0.382 ± 0.5
LVTRTVWGLK | 0.223 ± 0.21
CMRVRCFSILNSAFCKCEMA | -1.62 ± 1.1
TYVAFGGWLLEMPMLPTWSQ | 0.332 ± 0.37
YGVFYCSMPYCTSWGIHCVL | 7.19 ± 0.077
FASRSCEFCEREY | 3.2 ± 0.085
PTVSLKDISGWIKPVRYLNG | 0.26 ± 0.25
RRVSAIYYRSLCCLAHYFRL | 0.219 ± 1
FPSCSRGLHFKGLWTWYFPT | -0.388 ± 1.1
LFADGFGSRINDCNTVSMF | 0.881 ± 0.47
EFQGVS | 0.343 ± 0.64
